Values belong to the molecule of their own block, whether it stands above or below them.
What was measured:
[1] = molecular target: Barrier-to-autointegration factor Gly16Arg variant (BAF Gly16Arg), all cysteines replaced with alanines (human) (UniProt O75531); assay: SEC; gel filtration of purified, refolded BAF on a Superdex 200 pg HiLoad 16/600 column; elution profiles of WT and Gly16Arg compared
[2] = molecular target: Barrier-to-autointegration factor wild type (BAF WT), all cysteines replaced with alanines (human) (UniProt O75531); assay: ITC; VP-ITC; 10-20 µM monomeric BAF (WT or Gly16Arg) in the cell, 100 µM lamin A/C IgFold domain in the syringe; 50 mM Hepes pH 7.4, 150 mM NaCl; 288 K; duplicate, mean values; stoichiometry set to 0.5 (one IgFold domain for each BAF dimer assumed)
[3] = molecular target: Barrier-to-autointegration factor Gly16Arg variant (BAF Gly16Arg), all cysteines replaced with alanines (human) (UniProt O75531); assay: as above
[4] = molecular target: T1, BAF WT (Cys-to-Ala background) (Homo sapiens, UniProt O75531 1-89, C67A;C77A;C80A;C85A); assay: ITC; unphosphorylated; 288 K; mean of 2; ITC: 50 mM Hepes pH 7.4, 150 mM NaCl, 288 K; 10-20 uM BAF monomer in cell, 31-33 uM dsDNA in syringe; details: protein: recombinant; tags: His8-TEV, cleaved; chain copies: 2
T1 sequence: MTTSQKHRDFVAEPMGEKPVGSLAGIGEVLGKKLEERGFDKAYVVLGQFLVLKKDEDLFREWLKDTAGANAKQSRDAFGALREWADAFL

[5] = molecular target: T2, BAF Gly16Arg (Cys-to-Ala background) (Homo sapiens, UniProt O75531 1-89, G16R;C67A;C77A;C80A;C85A); assay: as above; details: protein: recombinant; tags: His8-TEV, cleaved; chain copies: 2
T2 sequence: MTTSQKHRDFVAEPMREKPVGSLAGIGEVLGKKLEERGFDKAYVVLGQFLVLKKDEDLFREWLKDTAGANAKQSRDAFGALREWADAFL

stoichiometry N [1]: 2
Molecule: Barrier-to-autointegration factor Gly16Arg variant (BAF Gly16Arg), all cysteines replaced with alanines (from UniProt O75531 1-89) (natural protein)

Kd [2]: 2700 nM | Kd [3]: 9000 nM
Molecule: lamin A/C IgFold domain (human lamin A/C residues 411 to 566) (from UniProt P02545 411-566) (domain or fragment)

B1: 22-nt dsDNA (dsDNA)
DNA 1: CTAGGGTTAGGGTTAGGGTTAG
DNA 2: CTAACCCTAACCCTAACCCTAG
Kd [4]: 117 ± 58 nM | Kd [5]: 16.3 ± 5.7 nM
